According to article PMC11148069 (The EMBO Journal, 2024):
One block for each binder: values may come before it.

Legend:
[1] = target: T1, xNup93(168–820), α-solenoid domain of Xenopus laevis Nup93 (Xenopus laevis, UniProt Q7ZX96); assay: cryo-EM structure; equimolar trimeric xNup93(168–820)·xhNup93-Nb4i·xNup93-Nb2t complex; 4.4 Å reconstruction; conditions: both partners purified
T1 construct: also called Nup93 α-solenoid domain; source: E. coli NEB Express, purified, untagged

[2] = target: T2, hNup35 (residues 173–248), RRM domain (human, UniProt Q8NFH5); assay: crystal structure; hNup35(173–248)·xhNup35-Nb1t complex; 0.05 M HEPES pH 6.5, 25% PEG400, 0.05 M NaCl, 0.01 M MgCl2; conditions: both partners purified
T2 construct: Nup35 (also called Nup53 or MP44), human, RRM domain, residues 173-248; also called homodimeric RRM domain of Homo sapiens (h)Nup35; Nup35 RRM; source: E. coli NEB Express, purified, untagged

human Nup35, endogenous = target: T3, human Nup35, endogenous (Homo sapiens (HeLa), UniProt Q8NFH5); assay: immunostaining of cells or tissue; sfGFP-Nup107 HeLa cells, PFA-fixed and Triton X-100-permeabilized or unfixed and digitonin-semi-permeabilized; 35 nM Alexa Fluor 647-labelled nanobody, 30 min, RT; confocal microscopy; conditions: one partner purified
T3 construct: Nup35, human; also called hNup35; source: endogenous, in NPCs of HeLa cells

[3] = target: T4, Xenopus Nup35, endogenous (Xenopus laevis (egg extract), UniProt Q6INW0); assay: immunostaining of cells or tissue; digitonin-semi-permeabilized sfGFP-Nup107 HeLa cells incubated 2 h at RT with buffer or Xenopus egg extract, energy mix and 35 nM fluorescent tracking nanobodies; Airyscan confocal microscopy; conditions: one partner purified
T4 construct: Nup35 of Xenopus egg extract; also called xNup35; source: endogenous, from Xenopus egg extract, in newly assembled NPCs

[4] = target: the molecule itself; assay: crystal structure; hNup35(173–248)·xhNup35-Nb1t complex; 0.05 M HEPES pH 6.5, 25% PEG400, 0.05 M NaCl, 0.01 M MgCl2
[5] = target: T5, recombinant Xenopus Nup93 target (BLI) (Xenopus, UniProt Q7ZX96); assay: BLI; nanobodies (biotin-[PEG]3-maleimide on two ectopic cysteines) immobilised on High Precision Streptavidin sensors; target proteins at 30–100 nM; 25 °C; PBS pH 7.4, 0.02% Tween-20, 0.1% BSA; apparent KDs; conditions: both partners purified
T5 construct: Nup93, Xenopus; the immunogen was the Nup93 α-solenoid domain; also called xNup93; source: E. coli NEB Express, purified

[6] = target: T6, recombinant human Nup93 target (BLI) (human, UniProt Q8N1F7); assay: as above; conditions: both partners purified
T6 construct: Nup93, human; the immunogen was the Nup93 α-solenoid domain; also called hNup93; source: E. coli NEB Express, purified

[7] = target: T7, Xenopus Nup93, endogenous (Xenopus (endogenous in egg extract), UniProt Q7ZX96); assay: pull-down; (biotin)-Avi-SUMO^Eu1-nanobodies on streptavidin-agarose, incubated with HeLa lysate or soluble fraction of Xenopus egg extract, 40 min, 4 °C; eluted by SENP^EuB; SDS-PAGE/Coomassie, identities confirmed by mass spectrometry; conditions: one partner purified
T7 construct: Nup93 of Xenopus egg extract; also called xNup93; source: endogenous, soluble fraction of Xenopus egg extract

human Nup93, endogenous = target: T8, human Nup93, endogenous (human (endogenous in HeLa), UniProt Q8N1F7); assay: as above; conditions: one partner purified
T8 construct: Nup93, human; also called hNup93; source: endogenous, HeLa lysate

[8] = target: T9, His14-NEDD8-tagged APD of xtNup98 (715–866) (Xenopus tropicalis, UniProt A0A1B8XZT4); assay: pull-down; His14-NEDD8-APD of xtNup98 immobilised on Ni2+ chelate matrix, incubated with xNup98-Nb1t or xhNup98-Nb2i, then xNup96(1–20)-RFP or xtNup88(2–500) added; eluted by NEDP1; SDS-PAGE/Coomassie; conditions: both partners purified
T9 construct: held on the Ni2+ chelate matrix by the tag; the tag was cleaved by NEDP1 only for elution; also called Nup98-APD; immobilized APD; source: E. coli NEB Express, purified

[9] = target: T10, Xenopus Nup98, endogenous (Xenopus laevis (egg extract, assumed), UniProt A0A8J1MFV7); assay: immunostaining of cells or tissue; digitonin-semi-permeabilized sfGFP-Nup107 HeLa cells incubated 2 h at RT with buffer or Xenopus egg extract, energy mix and 35 nM fluorescent tracking nanobodies; Airyscan confocal microscopy; conditions: one partner purified
T10 construct: Nup98, the cut product of the Nup98–Nup96 fusion protein (Nup196); the egg extract contains the already cleaved entities; also called xNup98; source: endogenous, soluble fraction of Xenopus egg extract; also as recruited from the extract to NPCs

[10] = target: T11, xNup98-APD (residues 714–864), autoproteolytic domain of Xenopus tropicalis Nup98 (Xenopus tropicalis); assay: crystal structure; xNup98-APD(714–864) with xhNup98-Nb2i or xhNup98-Nb3i; 2.5% PEG6000, 25% PEG MME500, 100 mM Tris/HCl pH 9; conditions: both partners purified
T11 construct: also called APD of Xenopus tropicalis xNup98; source: E. coli NEB Express, purified, untagged
T11 chain: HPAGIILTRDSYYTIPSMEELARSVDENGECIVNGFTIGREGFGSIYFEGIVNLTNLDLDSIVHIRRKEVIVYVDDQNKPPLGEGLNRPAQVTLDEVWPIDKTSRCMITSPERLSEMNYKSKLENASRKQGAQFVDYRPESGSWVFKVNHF

[11] = target: T10, Xenopus Nup98, endogenous; assay: pull-down; (biotin)-Avi-SUMO^Eu1-nanobodies on streptavidin-agarose, incubated with HeLa lysate or soluble fraction of Xenopus egg extract, 40 min, 4 °C; eluted by SENP^EuB; SDS-PAGE/Coomassie, identities confirmed by mass spectrometry; conditions: one partner purified
human Nup98, endogenous = target: T12, human Nup98, endogenous (human (endogenous in HeLa), UniProt P52948); assay: as above; conditions: one partner purified
T12 construct: Nup98, the cut product of the Nup98–Nup96 fusion protein, human; also called hNup98; source: endogenous, HeLa lysate; also in NPCs of semi-permeabilized HeLa cells
T12 sequence (P52948 1-880): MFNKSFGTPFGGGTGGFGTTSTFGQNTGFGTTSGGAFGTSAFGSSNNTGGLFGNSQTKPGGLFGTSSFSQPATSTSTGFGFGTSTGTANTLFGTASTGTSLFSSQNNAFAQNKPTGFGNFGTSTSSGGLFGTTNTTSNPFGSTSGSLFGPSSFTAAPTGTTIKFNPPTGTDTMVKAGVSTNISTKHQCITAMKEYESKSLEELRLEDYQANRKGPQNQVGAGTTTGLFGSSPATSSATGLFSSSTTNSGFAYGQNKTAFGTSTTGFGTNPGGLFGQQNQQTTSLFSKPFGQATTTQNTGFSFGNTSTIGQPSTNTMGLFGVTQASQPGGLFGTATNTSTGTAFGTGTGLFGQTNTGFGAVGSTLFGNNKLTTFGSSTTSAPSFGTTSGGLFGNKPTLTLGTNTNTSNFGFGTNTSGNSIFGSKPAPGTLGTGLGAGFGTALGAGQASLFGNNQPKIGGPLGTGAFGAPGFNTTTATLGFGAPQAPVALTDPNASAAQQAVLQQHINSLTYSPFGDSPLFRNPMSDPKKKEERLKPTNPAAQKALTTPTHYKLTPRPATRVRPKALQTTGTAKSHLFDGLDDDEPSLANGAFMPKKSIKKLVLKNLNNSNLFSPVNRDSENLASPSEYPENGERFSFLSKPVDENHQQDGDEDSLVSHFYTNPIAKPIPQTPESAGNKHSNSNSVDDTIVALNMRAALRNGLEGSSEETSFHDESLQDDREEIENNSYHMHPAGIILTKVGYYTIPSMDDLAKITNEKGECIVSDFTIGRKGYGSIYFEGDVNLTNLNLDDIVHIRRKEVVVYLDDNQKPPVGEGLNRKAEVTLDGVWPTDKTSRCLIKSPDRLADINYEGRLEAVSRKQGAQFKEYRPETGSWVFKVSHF

T1 sequence (Q7ZX96 168-820): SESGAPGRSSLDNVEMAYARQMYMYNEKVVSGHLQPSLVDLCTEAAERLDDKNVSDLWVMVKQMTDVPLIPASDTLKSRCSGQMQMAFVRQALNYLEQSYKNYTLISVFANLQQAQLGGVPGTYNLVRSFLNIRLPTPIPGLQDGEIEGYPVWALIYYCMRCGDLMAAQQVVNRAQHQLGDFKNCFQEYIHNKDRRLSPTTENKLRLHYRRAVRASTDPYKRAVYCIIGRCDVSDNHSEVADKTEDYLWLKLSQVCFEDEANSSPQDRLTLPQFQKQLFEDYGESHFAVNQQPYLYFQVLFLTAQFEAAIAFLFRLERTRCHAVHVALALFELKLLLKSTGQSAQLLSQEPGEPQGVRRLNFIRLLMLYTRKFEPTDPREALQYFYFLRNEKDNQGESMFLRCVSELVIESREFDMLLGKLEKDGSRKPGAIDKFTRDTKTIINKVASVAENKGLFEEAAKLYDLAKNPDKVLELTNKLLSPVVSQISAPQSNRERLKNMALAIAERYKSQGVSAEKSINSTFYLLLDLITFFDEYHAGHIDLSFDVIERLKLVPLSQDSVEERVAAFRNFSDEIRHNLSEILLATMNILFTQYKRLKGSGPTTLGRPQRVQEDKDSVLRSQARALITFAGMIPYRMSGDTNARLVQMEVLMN
T7 sequence (Q7ZX96 whole entry): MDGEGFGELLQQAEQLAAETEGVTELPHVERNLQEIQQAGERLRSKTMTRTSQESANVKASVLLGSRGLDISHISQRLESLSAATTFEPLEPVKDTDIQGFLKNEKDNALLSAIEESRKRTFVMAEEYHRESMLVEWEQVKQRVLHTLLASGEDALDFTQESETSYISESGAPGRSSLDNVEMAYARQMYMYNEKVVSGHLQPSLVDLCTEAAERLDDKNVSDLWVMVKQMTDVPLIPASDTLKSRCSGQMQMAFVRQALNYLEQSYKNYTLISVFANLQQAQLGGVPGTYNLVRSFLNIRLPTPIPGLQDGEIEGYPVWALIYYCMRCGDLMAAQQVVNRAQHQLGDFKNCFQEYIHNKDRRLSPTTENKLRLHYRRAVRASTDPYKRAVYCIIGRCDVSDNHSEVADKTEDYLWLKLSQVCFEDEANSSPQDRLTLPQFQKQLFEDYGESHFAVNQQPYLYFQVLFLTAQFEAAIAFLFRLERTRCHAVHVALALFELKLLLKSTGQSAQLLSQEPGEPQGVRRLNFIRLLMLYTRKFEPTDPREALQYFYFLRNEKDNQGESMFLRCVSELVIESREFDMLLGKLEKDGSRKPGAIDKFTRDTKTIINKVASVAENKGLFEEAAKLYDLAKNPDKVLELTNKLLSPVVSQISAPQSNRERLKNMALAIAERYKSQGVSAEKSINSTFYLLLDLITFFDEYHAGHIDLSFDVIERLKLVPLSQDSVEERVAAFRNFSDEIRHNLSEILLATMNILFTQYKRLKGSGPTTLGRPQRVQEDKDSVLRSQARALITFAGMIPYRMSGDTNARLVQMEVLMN
T5 sequence (Q7ZX96 whole entry, the tested form may be a part): as the sequence (Q7ZX96 whole entry) above
T3 sequence (Q8NFH5 whole entry): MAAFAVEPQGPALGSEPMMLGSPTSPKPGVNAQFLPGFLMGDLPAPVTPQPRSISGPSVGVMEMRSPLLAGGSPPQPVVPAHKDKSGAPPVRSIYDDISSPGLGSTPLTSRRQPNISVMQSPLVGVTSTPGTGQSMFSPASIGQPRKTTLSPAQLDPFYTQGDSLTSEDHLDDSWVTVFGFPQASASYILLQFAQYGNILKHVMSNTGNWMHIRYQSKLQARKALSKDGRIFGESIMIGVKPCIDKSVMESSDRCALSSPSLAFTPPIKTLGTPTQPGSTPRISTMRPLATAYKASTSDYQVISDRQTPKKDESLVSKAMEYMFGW
T8 sequence (Q8N1F7 whole entry): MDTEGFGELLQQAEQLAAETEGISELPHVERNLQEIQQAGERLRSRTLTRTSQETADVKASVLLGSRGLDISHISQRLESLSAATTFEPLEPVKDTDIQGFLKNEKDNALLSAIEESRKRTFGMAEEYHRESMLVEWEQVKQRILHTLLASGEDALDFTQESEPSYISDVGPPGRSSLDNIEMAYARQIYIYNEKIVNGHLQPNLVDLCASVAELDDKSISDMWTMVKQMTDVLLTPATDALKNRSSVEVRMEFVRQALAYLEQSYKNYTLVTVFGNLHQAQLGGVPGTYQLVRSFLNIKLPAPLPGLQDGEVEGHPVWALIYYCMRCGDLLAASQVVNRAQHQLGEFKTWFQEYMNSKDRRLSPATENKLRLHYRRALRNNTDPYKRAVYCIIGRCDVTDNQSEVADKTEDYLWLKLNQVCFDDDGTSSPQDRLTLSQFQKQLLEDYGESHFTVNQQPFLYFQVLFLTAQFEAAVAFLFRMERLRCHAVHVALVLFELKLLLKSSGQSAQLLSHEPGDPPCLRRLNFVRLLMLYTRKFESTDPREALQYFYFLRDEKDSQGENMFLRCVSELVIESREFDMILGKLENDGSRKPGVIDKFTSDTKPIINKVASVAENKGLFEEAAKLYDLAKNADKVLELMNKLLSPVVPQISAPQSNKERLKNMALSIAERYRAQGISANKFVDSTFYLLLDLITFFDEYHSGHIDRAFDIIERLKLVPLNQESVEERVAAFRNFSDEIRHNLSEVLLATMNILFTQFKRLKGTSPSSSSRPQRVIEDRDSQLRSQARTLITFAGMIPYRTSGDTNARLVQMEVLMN
T6 sequence (Q8N1F7 whole entry, the tested form may be a part): as the sequence (Q8N1F7 whole entry) above

binding result [1]: binds
B1: xNup93-Nb2t (VHH)
VHH: DVQLVESGGGLVQPGGSLRLSCVASGFTFSRVGMGWVRQAPGKGLEWVSDINASGGTGYADSVKGRFAISRDNAKNTLYLQMNRLKPEDTAVYYCAKMMDTAMIEAGIIKPAGQGTQVTVSS
notes: they are in the PDB entry of the unliganded nanobody (printed as 8CDT in the methods and 8CD7 in the data availability) and in PDB 7ZOX; purified untagged in the cryo-EM complex; for the unliganded crystal expressed as a His14-bdSUMO fusion and cleaved; also called tracking nanobody xNup93-Nb2t; source: E. coli SHuffle, purified

binding result [2]: binds
B2: xhNup35-Nb1t (VHH)
VHH: QVQLVESGGGLVQAGGSLRLSCVGTGNISSAYTMAWYRQAAGKEREVVAGILNGGSTHYADSVKGRFTISRDNAKNTVYLQMNSLQPEDTGVYCCHVVIESTRFVYDHYWGQGTRVTVSS
notes: they are in PDB 8OZB (complex with the human Nup35 RRM homodimer); form of the crystal structure; also called cross-specific anti-Nup35 nanobody; source: E. coli SHuffle, purified (Ni2+ chelate, NEDP1 protease elution, SEC)

binding result (human Nup35, endogenous): binds
binding result [3]: binds
B3: xhNup35-Nb1t, fluorophore-labelled (VHH)
VHH: QVQLVESGGGLVQAGGSLRLSCVGTGNISSAYTMAWYRQAAGKEREVVAGILNGGSTHYADSVKGRFTISRDNAKNTVYLQMNSLQPEDTGVYCCHVVIESTRFVYDHYWGQGTRVTVSS
notes: as the VHH of m12 with engineered cysteines; source: E. coli SHuffle, purified, labelled with maleimide dye

B4: hNup35 (residues 173–248), RRM domain (domain or fragment, human, UniProt Q8NFH5 173-248, looked up)
chain: DSWVTVFGFPQASASYILLQFAQYGNILKHVMSNTGNWMHIRYQSKLQARKALSKDGRIFGESIMIGVKPCIDKSV
notes: Nup35 (also called Nup53 or MP44), human, RRM domain, residues 173-248; also called homodimeric RRM domain of Homo sapiens (h)Nup35; Nup35 RRM; source: E. coli NEB Express, purified, untagged
binding result [4]: binds

binding result [5]: binds
binding result [6]: binds
B5: xhNup93-Nb4i, biotinylated for BLI (VHH)
VHH: QVQLVESGGGVVQTGDSLMLSCTVSGHTIDNWAMGWFRQTPRKQREFVAAIDKRGTGAIYGNSVKGRFTVSRDNAKNMVYLRMNSLKPEDTAVYFCAVDQLNAGLGDVSYDYDYWGQGTQVTVSS
notes: as the VHH of m1 with two ectopic cysteines; source: E. coli SHuffle, purified

binding result [1]: binds
B6: xhNup93-Nb4i (VHH)
VHH: QVQLVESGGGVVQTGDSLMLSCTVSGHTIDNWAMGWFRQTPRKQREFVAAIDKRGTGAIYGNSVKGRFTVSRDNAKNMVYLRMNSLKPEDTAVYFCAVDQLNAGLGDVSYDYDYWGQGTQVTVSS
notes: they are in PDB 8CDS (unliganded nanobody) and PDB 7ZOX (complex with xNup93); form used for the cryo-EM complex; for the unliganded crystal it was expressed as a His14-bdSUMO fusion and cleaved; source: E. coli SHuffle, purified (Ni2+ chelate, NEDP1 protease elution, SEC)

binding result [7]: binds
binding result (human Nup93, endogenous): binds
B7: (biotin)-Avi-SUMO^Eu1-xhNup93-Nb4i (VHH)
VHH: QVQLVESGGGVVQTGDSLMLSCTVSGHTIDNWAMGWFRQTPRKQREFVAAIDKRGTGAIYGNSVKGRFTVSRDNAKNMVYLRMNSLKPEDTAVYFCAVDQLNAGLGDVSYDYDYWGQGTQVTVSS
notes: as the VHH of m1; the tag was cleaved by SENP^EuB only for elution; source: E. coli SHuffle, purified; not shown: Avi (biotinylated), N-terminal, kept; SUMO^Eu1, N-terminal, kept

binding result [8]: binds
B8: xNup98-Nb1t (as added in the binding assay of Fig. 11C) (VHH)
VHH: QVQLVESGGGPVEAGGSLRLSCAASGRSFSNSVMAWFRQAPGKEREFLSVLNWSSGRTSIADSVKGRFTMSRDPAKITVYLQMNGLKPEDTAVYYCAASNRGSLYTLDNQNRYEDWGQGTQVTVSS
notes: they are in PDB 5E0Q (xNup98-APD·xNup98-Nb1t complex, Pleiner et al, 2015); also called tracking nanobody xNup98-Nb1t; source: E. coli SHuffle, purified

binding result [9]: binds
B9: xNup98-Nb1t, fluorophore-labelled (VHH)
VHH: QVQLVESGGGPVEAGGSLRLSCAASGRSFSNSVMAWFRQAPGKEREFLSVLNWSSGRTSIADSVKGRFTMSRDPAKITVYLQMNGLKPEDTAVYYCAASNRGSLYTLDNQNRYEDWGQGTQVTVSS
notes: as the VHH of m10 with engineered cysteines; source: E. coli SHuffle, purified, labelled with maleimide dye

binding result [10]: binds
B10: xhNup98-Nb2i (VHH)
VHH: QVQLVESGGGLAKPGGSLRLSCVATGTFRSMEDVGWYRQAPGKDRELVAEITTLGKVTYADSVKGRFTISRDDAKNAVYLQMSDLKSEDTAVYYCNIEADQTKGIGYVVYPYWGQGTRVTVSS
notes: they are in PDB 7NQA (complex with xNup98-APD); form of the crystal structure; also called xNup98-Nb2i; source: E. coli SHuffle, purified (Ni2+ chelate, NEDP1 protease elution, SEC)

binding result [11]: binds
binding result (human Nup98, endogenous): binds
B11: (biotin)-Avi-SUMO^Eu1-xhNup98-Nb2i (VHH)
VHH: QVQLVESGGGLAKPGGSLRLSCVATGTFRSMEDVGWYRQAPGKDRELVAEITTLGKVTYADSVKGRFTISRDDAKNAVYLQMSDLKSEDTAVYYCNIEADQTKGIGYVVYPYWGQGTRVTVSS
notes: as the VHH of m5; the tag was cleaved by SENP^EuB only for elution; source: E. coli SHuffle, purified; not shown: Avi (biotinylated), N-terminal, kept; SUMO^Eu1, N-terminal, kept

binding result [8]: binds
B12: xhNup98-Nb2i (as added in the binding assay of Fig. 11C) (VHH)
VHH: QVQLVESGGGLAKPGGSLRLSCVATGTFRSMEDVGWYRQAPGKDRELVAEITTLGKVTYADSVKGRFTISRDDAKNAVYLQMSDLKSEDTAVYYCNIEADQTKGIGYVVYPYWGQGTRVTVSS
notes: as the VHH of m5; source: E. coli SHuffle, purified

binding result [10]: binds
B13: xhNup98-Nb3i (VHH)
VHH: QVQLVESGGGLVQAGGSLRLSCAASGRTFSTYAMGWFRQAPGKEREFVSACSWSGGITRYADSVKGRFTISRDNAKNTVYLQMNSLKPEDTAVYYCASAASSAAYSGAYYYTSYYDYWGQGTQVTVSS
notes: they are in PDB 7NOW (complex with xNup98-APD); form of the crystal structure; source: E. coli SHuffle, purified (Ni2+ chelate, NEDP1 protease elution, SEC)
